{"source": "patent US20200129639A1", "about": "(Seagen, published 2020)", "binders": {"B1": {"name": "hBU12 co-conjugate (2 drugs on 1 ADC) (antibody, V domains shown)", "VH": "QVQLQESGPGLVKPSQTLSLTCTVSGGSISTSGMGVGWIRQHPGKGLEWIGHIWWDDDKRYNPALKSRVTISVDTSKNQFSLKLSSVTAADTAVYYCARMELWSYYFDYWGQGTLVTVSS", "VL": "EIVLTQSPATLSLSPGERATLSCSASSSVSYMHWYQQKPGQAPRLLIYDTSKLASGIPARFSGSGSGTDFTLTISSLEPEDVAVYYCFQGSVYPFTFGQGTKLEIKR"}}, "biological_target": "T1, CD19 (UniProt P15391 20-556, limits assumed)", "T1 sequence (looked up)": "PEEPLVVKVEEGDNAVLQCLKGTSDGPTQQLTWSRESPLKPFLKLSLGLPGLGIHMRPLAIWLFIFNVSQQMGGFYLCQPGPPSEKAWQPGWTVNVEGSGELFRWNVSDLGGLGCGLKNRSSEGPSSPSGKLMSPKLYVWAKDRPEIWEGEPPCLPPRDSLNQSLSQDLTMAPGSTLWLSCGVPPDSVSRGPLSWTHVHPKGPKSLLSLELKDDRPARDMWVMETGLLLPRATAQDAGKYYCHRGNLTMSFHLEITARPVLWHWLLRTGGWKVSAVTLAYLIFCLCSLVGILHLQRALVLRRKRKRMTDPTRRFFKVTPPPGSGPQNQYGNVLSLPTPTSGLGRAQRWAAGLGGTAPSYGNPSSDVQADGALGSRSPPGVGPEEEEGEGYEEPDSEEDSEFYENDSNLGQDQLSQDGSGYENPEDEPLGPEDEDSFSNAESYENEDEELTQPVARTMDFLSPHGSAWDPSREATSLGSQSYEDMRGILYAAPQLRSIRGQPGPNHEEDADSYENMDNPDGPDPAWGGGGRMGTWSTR", "assay": "cell-based or functional assay"}
{"binder": "B1", "values": [{"measurement": "Co-Conjugate IC50 (ng/mL), cytotoxicity on Granta-519 cells", "value": 3, "unit": "ng/mL"}, {"measurement": "Co-Conjugate IC50 (ng/mL), cytotoxicity on SU-DHL-16 cells", "value": 0.2, "unit": "ng/mL"}]}
